Assay results published in the RNAGym collection of RNA variant scans (doi:10.1093/molbev/msab373).

B1: Azoarcus group I ribozyme (parent)
chain: GUGCCUUGCGCCGGGAAACCACGCAAGGGAUGGUGUCAAAUUCGGCGAAACCUAAGCGCCCGCCCGGGCGUAUGGCAACGCCGAGCCAAGCUUCGGCGCCUGCGCCGAUGAAGGUGUAGAGACUAGACGGCACCCACCUAAGGCAAACGCUAUGGUGAAGGCAUAGUCCAGGGAGUGGCGAAAGUCACACAAACCGG

Variants of: B1
Experiment: reverse-splicing fitness (ratio to wild type); higher = more active; in vitro selection; Mg2+ level not given
Procedure, shortened: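 An in vitro group I ribozyme library with randomized positions was T7-transcribed and gel-purified. In triplicate, 10 pmol RNA in EPPS pH 7.5 was reacted with 50 pmoles of a 30-nt RNA substrate for 1 h at 37 °C across several added MgCl2 levels (1–48 mM), then stopped with EDTA. Products were reverse transcribed from a substrate-complementary primer, PCR-amplified and sequenced (HiSeq 4000). Fitness is a variant's read proportion after selection over that before, normalised to wild type.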

Variant	reverse-splicing fitness
A111G C150A C169G	0.0174
A111G C150A C169U	0.0262
A111G C150A C169A	0.0135
A111G A145G C150U C169U U176C	0.0611
A111G A145G C150U C169U U176G	0.00616
A111G A145G C150U C169U U176A	0.0415
A111G A145U C150U U176C	0.697
A111G A145U C150U U176G	0.317
A111G A145U C150U U176A	0.677
A111G A145U C169U U176A	0.0488
A111G A145U C169U U176C	0.0656
A111G A145U C169U U176G	0.00767
A111G A145U C150U C169G U176G	0.0059
A111G A145U C150U C169G U176C	0.0325
A111G A145U C150U C169G U176A	0.0215
A111G A145C C169G	0.116
A111G A145C C169A	0.0493
A111G A145C C169U	0.188
A111G A145U C169A U176G	0.00483
A111G A145U C169A U176C	0.0203
A111G A145U C169A U176A	0.0114

Variant	reverse-splicing fitness
A111G A145C C150G C169A	0.0117
A111G A145C C150G C169G	0.018
A111G A145C C150G C169U	0.0255
A111G A120U C169U	0.144
A111G A120U C169A	0.00619
A111G A120U C169G	0.103
A111G A145U C150A U176C	0.237
A111G A145U C150A U176G	0.121
A111G A145U C150A U176A	0.224
A111U A120C A145C C150U U176A	0.0815
A111U A120C A145C C150U U176G	0.019
A111U A120C A145C C150U U176C	0.0967
A111U A120C A145C C150G C169A U176C	0.00519
A111U A120C A145C C150G C169A U176A	0.00803
A111U A120C A145C C150G C169A U176G	0.00509
A111G A145G C150G U176C	0.184
A111G A145G C150G U176G	0.0237
A111G A145G C150G U176A	0.111
A111G A145G C150U C169G U176C	0.0431
A111G A145G C150U C169G U176G	0.00595
A111G A145G C150U C169G U176A	0.0289

Variant	reverse-splicing fitness
A111G A145G C169A	0.053
A111G A145G C169U	0.19
A111G A145G C169G	0.118
A111G U176C	0.752
A111G U176A	0.794
A111G U176G	0.354
A111G A145G C150G C169A	0.0128
A111G A145G C150G C169U	0.0298
A111G A145G C150G C169G	0.0171
A111G A145C C150U C169A U176C	0.00832
A111G A145C C150U C169A U176A	0.0101
A111G A145C C150U C169A U176G	0.0059
A111G A145G U176C	0.779
A111G A145G U176A	0.751
A111G A145G U176G	0.333
A111G A145G C150A C169G U176C	0.0276
A111G A145G C150A C169G U176A	0.0234
A111G A145G C150A C169G U176G	0.00564
A111G A120U C169A U176G	0.00161
A111G A120U C169A U176A	0.0033
A111G A120U C169A U176C	0.00321

Variant	reverse-splicing fitness
A111G C150U U176C	0.646
A111G C150U U176A	0.686
A111G C150U U176G	0.271
A111G A145U C150U C169U	0.132
A111G A145U C150U C169G	0.0749
A111G A145U C150U C169A	0.0341
A111G A145U C150G C169G U176G	0.00482
A111G A145U C150G C169G U176C	0.00501
A111G A145U C150G C169G U176A	0.00712
A111G A145C C150U C169G U176G	0.00586
A111G A145C C150U C169G U176A	0.0242
A111G A145C C150U C169G U176C	0.0204
A111U A120C A145C C150G C169A	0.00818
A111U A120C A145C C150G C169G	0.00716
A111U A120C A145C C150G C169U	0.0236
A111G A120U C169U U176G	0.00411
A111G A120U C169U U176C	0.0395
A111G A120U C169U U176A	0.0277
A111G A145C C150A C169G	0.0111
A111G A145C C150A C169U	0.0168
